Reference: PMC2764551

Biological target: fluorescein-labeled UBE2D2 (WT) (human), P62837
Test: fluorescence polarisation
Settings: remark: other sources report otherwise

Sequence of fluorescein-labeled UBE2D2 (WT) (human), P62837 (P62837 whole entry): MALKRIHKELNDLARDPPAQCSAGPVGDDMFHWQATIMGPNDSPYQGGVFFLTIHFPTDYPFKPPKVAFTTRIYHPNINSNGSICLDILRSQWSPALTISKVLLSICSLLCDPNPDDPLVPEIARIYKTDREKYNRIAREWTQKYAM

B1: IpaH1.4 C-terminal domain, residues 265-575, A0A0H2USG1 265-575 (domain or fragment)
chain: GPQIFFSMGNSATISAPEHSLADAVTAWFPENKQSDVSQIWHAFEHEEHANTFSAFLDRLSDTVSARNTSGFREQVAAWLEKLSASAELRQQSFAVAADATESCEDRVALTWNNLRKTLLVHQASEGLFDNDTGALLSLGREMFRLEILEDIARDKVRTLHFVDEIEVYLAFQTMLAEKLQLSTAVKEMRFYGVSGVTANDLRTAEAMVRSREENEFTDWFSLWGPWHAVLKRTEADRWAQAEEQKYEMLENEYSQRVADRLKASGLSGDADAEREAGAQVMRETEQQIYRQLTDEVLALRLSENGSNHIA
  Kd: 317 µM
